What was measured:
[1] = biological target: pcl2_yeast PCL2 (UniProt P25693)
[2] = biological target: cg13_yeast CLN3 (UniProt P13365)
[3] = biological target: clg1_yeast CLG1 (UniProt P35190)
clg1_yeast CLG1, sequence (P35190 whole entry): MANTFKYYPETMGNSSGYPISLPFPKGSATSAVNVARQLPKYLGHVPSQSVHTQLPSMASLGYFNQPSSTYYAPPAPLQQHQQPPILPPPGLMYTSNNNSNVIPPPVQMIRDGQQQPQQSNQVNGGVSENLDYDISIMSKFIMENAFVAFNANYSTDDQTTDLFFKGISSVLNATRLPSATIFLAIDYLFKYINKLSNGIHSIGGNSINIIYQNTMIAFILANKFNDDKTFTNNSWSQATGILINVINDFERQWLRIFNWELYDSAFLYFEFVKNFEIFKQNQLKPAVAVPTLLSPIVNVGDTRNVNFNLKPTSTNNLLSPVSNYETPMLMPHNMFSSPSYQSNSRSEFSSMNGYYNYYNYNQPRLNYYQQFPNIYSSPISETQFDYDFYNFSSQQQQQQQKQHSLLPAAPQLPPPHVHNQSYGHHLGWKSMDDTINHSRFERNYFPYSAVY

pcl2_yeast PCL2, sequence (P25693 whole entry): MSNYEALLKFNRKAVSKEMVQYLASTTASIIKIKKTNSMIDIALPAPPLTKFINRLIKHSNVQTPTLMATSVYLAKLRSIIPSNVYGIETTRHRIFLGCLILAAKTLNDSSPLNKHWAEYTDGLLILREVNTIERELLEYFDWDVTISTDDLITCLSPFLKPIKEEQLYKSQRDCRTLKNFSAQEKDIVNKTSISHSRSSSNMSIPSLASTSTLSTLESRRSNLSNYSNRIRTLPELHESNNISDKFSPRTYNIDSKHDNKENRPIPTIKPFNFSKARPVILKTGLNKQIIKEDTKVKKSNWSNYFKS
cg13_yeast CLN3, sequence (P13365 whole entry): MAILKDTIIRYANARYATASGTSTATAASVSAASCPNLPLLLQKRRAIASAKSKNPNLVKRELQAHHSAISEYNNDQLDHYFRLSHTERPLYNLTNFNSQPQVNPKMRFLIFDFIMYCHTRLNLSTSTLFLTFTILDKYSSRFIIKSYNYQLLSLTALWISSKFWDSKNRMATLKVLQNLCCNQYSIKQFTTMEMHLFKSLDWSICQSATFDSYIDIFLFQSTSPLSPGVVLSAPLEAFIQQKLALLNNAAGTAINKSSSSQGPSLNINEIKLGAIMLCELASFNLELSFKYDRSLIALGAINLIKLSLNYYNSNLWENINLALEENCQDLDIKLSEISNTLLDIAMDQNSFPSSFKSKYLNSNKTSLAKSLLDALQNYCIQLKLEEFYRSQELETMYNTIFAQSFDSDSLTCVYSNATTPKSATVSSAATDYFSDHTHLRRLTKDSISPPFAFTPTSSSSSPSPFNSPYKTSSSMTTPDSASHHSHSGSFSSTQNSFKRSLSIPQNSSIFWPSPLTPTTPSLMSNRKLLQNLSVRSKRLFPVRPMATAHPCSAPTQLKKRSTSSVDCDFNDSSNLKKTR

Row | effect of a mutation on the interaction [1] | effect of a mutation on the interaction [2] | effect of a mutation on the interaction [3] | Substance
1 | increasing interaction strength | disrupting interaction strength | increasing interaction strength | Heat shock protein SSA1 (Saccharomyces cerevisiae), P10591 T36A
2 | decreasing interaction strength |  | decreasing interaction strength | Heat shock protein SSA1 (Saccharomyces cerevisiae), P10591 T36E

From IntAct's records for PubMed 23217712
